These results are taken from PMC6270235, “A Macrocyclic Peptide that Serves as a Cocrystallization Ligand and Inhibits the Function of a MATE Family Transporter” (Molecules, 2013).

Bridge positions count the residues as written; N and C are the ends.

The target in this assay is T1, Pyrococcus furiosus multidrug and toxic compound extrusion (PfMATE) transporter, wild type, His6-tagged, … (Pyrococcus furiosus, UniProt Q8U2X0 1-461).
T1 construct: PfMATE, MATE family transporter of Pyrococcus furiosus, wild type; Held in HEPES-buffered saline with 0.1% Cymal-6; also called His-tagged PfMATE; source: prepared according to literature [29]; not shown: His6, C-terminal, kept
T1 sequence (looked up): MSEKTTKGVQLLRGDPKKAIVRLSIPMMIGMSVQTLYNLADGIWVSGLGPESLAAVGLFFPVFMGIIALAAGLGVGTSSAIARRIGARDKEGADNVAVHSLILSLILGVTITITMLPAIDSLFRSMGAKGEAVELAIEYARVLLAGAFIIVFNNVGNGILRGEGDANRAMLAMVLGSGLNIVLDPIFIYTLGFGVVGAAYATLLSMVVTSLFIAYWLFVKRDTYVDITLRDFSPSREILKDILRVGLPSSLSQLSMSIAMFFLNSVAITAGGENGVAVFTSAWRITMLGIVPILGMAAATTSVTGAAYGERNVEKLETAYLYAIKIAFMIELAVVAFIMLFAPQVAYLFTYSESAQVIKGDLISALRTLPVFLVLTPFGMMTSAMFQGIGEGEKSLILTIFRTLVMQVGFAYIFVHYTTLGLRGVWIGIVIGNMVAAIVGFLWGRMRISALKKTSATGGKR
In words: mRNA display selection round with competitor; c-Round 6: 32 µM mRNA-free synthetic MaL6 in the buffer of the binding step, 37 °C, His6-PfMATE on magnetic beads, libraries from Round 5; recovery by real-time PCR. The conditions noted are these: both partners purified. For orientation: Real-time PCR tracks product formation cycle by cycle.

B1: MaL6, chemically synthesized thioether-macrocyclic peptide, not conjugated to mRNA, with an additional C-terminal glycine-carboxamide (peptide)
peptide: {CH2CO}-FTFRYSPSLYTWFLFPCG-NH2
modifications: thioether N-17 (inferred)
notes: AcF = N-chloroacetyl-L-phenylalanine; selected from the LF-library by RaPID; additional C-terminal glycine-carboxamide; also called chemically synthesized MaL6; mRNA-free MaL6; source: synthetic peptide, HPLC purified
On to B1, for which the binding result is on record as “binds”.
